Experimental data published in patent US10746644B2, “Vitro method and apparatus for analysing the behaviour of substances in simulated physiological environment” (Hoffmann-La Roche Inc., priority 2014, dated 2020).

Assay: Effect of dialysis membrane MWCO on diffusion of BSA and IgG from VH-compartment to FT-compartment
Type: in vitro ADME, porcine
Details: DM-1 50 kDa MWCO compared with DM-1 100 kDa MWCO; DM-2 100 kDa; HA gel 0.6% w/v
Experimental: Diffusion of bovine serum albumin (BSA) and Immunoglobulin G (IgG) in the flow direction from VH-compartment to FT-compartment was investigated by varying MWCO of the dialysis membrane. The experiment was performed similarly as described in example 1 with minor modifications. Two different MWCO dialysis membranes were used as DM-1, with MWCO 50 kDa and 100 kDa, whereas the MWCO of DM-2 was kept constant at 100 kDa. VH-compartment was filled with 3.5 mL of sterile porcine VH and GM-compartment was filled with about 3 mL of sterile HA gel (0.6% w/v). FT-compartment was filled with sterile PBS.

With “FITC-BSA: FITC-labelled bovine serum albumin (66 kDa), globular macromolecule” the “diffusion into FT compartment” value was “restrained the diffusion of both IgG and BSA significantly”.
